Measurements from US20240409645A1.

Columns and labels:
mouse IL-2Rγ (mouse) = biological target: T1, mouse IL-2Rγ (mouse) (UniProt P34902); assay: P.E. binding ELISA
T1 sequence (looked up): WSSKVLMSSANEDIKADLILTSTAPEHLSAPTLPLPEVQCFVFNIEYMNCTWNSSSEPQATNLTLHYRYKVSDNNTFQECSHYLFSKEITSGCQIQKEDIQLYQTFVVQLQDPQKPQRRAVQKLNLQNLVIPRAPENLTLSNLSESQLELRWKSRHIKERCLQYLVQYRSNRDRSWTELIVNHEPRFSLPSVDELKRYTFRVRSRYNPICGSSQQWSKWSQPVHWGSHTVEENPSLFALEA

mouse IL-2Rβ (mouse) = biological target: T2, mouse IL-2Rβ (mouse) (UniProt P16297); assay: P.E. binding ELISA, mouse IL-2Rβ coated
T2 sequence (looked up): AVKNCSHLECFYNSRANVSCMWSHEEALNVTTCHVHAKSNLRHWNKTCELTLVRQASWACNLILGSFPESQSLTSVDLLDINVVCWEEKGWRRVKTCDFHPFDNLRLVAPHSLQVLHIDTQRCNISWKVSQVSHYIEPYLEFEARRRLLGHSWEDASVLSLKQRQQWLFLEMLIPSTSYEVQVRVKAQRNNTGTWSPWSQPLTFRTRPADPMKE

mouse IL-2Rα (mouse) = biological target: T3, mouse IL-2Rα (mouse) (UniProt P01590); assay: P.E. binding ELISA
T3 sequence (looked up): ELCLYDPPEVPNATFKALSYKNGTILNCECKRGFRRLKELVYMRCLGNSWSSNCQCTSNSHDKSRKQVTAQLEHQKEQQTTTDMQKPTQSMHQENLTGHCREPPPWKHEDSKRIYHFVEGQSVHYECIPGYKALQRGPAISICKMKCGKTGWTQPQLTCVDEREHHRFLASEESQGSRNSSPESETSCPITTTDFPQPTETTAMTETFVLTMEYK

[1] = biological target: T4, mouse common cytokine receptor γ-chain (IL-2Rγ) (mouse) (UniProt P34902); assay: P.E. binding ELISA
T4 sequence (looked up): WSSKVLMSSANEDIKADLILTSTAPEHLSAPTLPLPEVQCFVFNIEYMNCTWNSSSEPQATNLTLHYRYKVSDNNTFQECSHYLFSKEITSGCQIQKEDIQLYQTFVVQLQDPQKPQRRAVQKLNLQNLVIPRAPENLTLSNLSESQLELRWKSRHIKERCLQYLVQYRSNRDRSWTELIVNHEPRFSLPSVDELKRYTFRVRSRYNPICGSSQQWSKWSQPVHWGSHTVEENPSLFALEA

[2] = biological target: cynomolgus monkey IL-2Rγ/CD132 subunit (cynomolgus monkey); assay: ELISA, monovalent VHH-hFc
[3] = biological target: T5, human common cytokine receptor γ-chain (γc; IL-2Rγ; CD132), recombinant protein (human) (UniProt P31785); assay: ELISA, monovalent VHH-hFc
T5 sequence: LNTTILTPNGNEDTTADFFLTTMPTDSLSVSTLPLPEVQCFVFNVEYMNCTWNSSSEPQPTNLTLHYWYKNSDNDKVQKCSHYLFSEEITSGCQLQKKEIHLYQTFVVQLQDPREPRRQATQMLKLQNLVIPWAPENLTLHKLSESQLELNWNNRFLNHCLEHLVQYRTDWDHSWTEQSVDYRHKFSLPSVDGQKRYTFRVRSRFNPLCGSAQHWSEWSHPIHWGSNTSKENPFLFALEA

[4] = biological target: cynomolgus monkey IL-2Rγ/CD132 subunit (cynomolgus monkey); assay: ELISA, monovalent; EC50 cyno vs human subunit

Chain of cynomolgus monkey IL-2Rγ/CD132 subunit (cynomolgus monkey) (chain, as listed by the source): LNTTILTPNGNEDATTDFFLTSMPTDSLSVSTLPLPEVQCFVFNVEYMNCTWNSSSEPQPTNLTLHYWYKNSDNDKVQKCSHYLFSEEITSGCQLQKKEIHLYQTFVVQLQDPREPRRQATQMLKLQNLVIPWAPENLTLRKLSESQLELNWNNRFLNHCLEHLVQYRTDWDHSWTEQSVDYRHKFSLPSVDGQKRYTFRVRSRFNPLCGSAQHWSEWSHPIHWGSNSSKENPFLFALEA

B1: 32-MP04A08 VHH (periplasmic extract) (VHH)
VHH: QVQLVESGGGLVQAGGSLRLSCAASGRTFGSTAVGWFRQVPGKEREFVSAINRSGSATTYADSVKGRFTISRDNAKNTVYLQMNSLTPEDTGVYYCAADSLPYGRPYYFQRSAGEYDYWGQGTQVTVSS
OD450 nm (mouse IL-2Rγ (mouse)): 0.05 OD450 nm

B2: 27-MP04G01 VHH (periplasmic extract) (VHH)
VHH: QVQLVESGGGLVQAGGSLTLSCAAPGRTFGTDVVGWFRQAPGKEREFVASISRSGDGIYYDDSVKGRFTISRNNAWNTVNLQMNSLKVEDTAVYYCAAGDGWSTYDYWGQGTQVTVSS
OD450 nm (mouse IL-2Rγ (mouse)): 0.048 OD450 nm

B3: 35-MP07G01 VHH (periplasmic extract) (VHH)
VHH: QVQLQESGGGLVQGGGSLRLSCAASGGIFSSYAMGWFRQAPGKEREFVAAISRSGRSTNYADSVKGRFTISRDNAKSTVYLQMNSLKPEETAVYYCAAGRYYNSAYDPSPGDFGSWGHGTQVTVSS
OD450 nm (mouse IL-2Rγ (mouse)): 0.045 OD450 nm

B4: 29-MP04H02 VHH (periplasmic extract) (VHH)
VHH: QVQLVESGGGLVQAGGSLRLACVASGLTFDNYYMGWFRQAPGKEREFVAGIIWNGDHTAYADSIKGRFTISRDNAKNTAYLRMNSLKPEDTAVYYCAATFWIERATTPDIGQYAYWGQGTQVTVSS
OD450 nm (mouse IL-2Rγ (mouse)): 0.05 OD450 nm

B5: FJ1427 P035MP06A08 (VHH)
VHH: EVQLVESGGGLVQAGESLRLSCAASGQYFSTYSMAWFRRTPGKEREFVTIISESGGIKEYVDSVKGRFTVSRDNAKNTVYLQMNSLKPEDTAVYYCAAARDWFARNEYQYDYWGQGTQVTVSS
OD450 nm (P.E. binding ELISA) (mouse IL-2Rβ (mouse)): 0.047 OD450 nm

B6: FJ1427_P035MP06F09 (VHH)
VHH: QVQLVESGGGLVQAGGSLTLSCAASGRAFSNYPVGWFRQAPGKEREFVAAITWLSGSTLYADSVEGRFTISRDNAKNTVYLLMSSLKPEDTALYFCAAALKTITRGQNDYSYWGQGTQVTVSS
OD450 nm (P.E. binding ELISA) (mouse IL-2Rβ (mouse)): 0.046 OD450 nm

B7: 1-MP01H01 VHH (periplasmic extract) (VHH)
VHH: EVQLVESGGGLVQAGGSLRLSCAASGRTFRTHNMGWFRRAPGKEREFVAAISWNVDNTLYADSVKGRFTISRDNGRNMVYLQMNSLKPEDTAVYYCAADNIPLSSDVAATATEYDYWGQGTQVTVSS
OD450 nm (mouse IL-2Rα (mouse)): 0.048 OD450 nm

B8: FJ1427_P035MP04F12 (VHH)
VHH: QVQLQESGGGWVQVGESLRLSCVPSGRTFVSGIMGWFRQAPGKEREFVARIILNNNSTRYTDSVKGRFTISRDSAKNTMYLQMNTLRPEDTAVYYCAARDRYGSGNSLSPSAYDYWGQGTQVTVSS
PE binding ELISA OD [1]: 0.049 OD450 nm

B9: FJ1427_P035MP07C02 (VHH)
VHH: EVQLVESGGGWVQVGESLRLSCAPSGRTFVSGIMGWFRQTPGKEREFVARIILNNNSTRYTDSVKGRFTISRDSAKNTMYLQMNTLRPEDTAVYYCAARDRYGSGNSLSPSAYDYWGQGTQVTVSS
PE binding ELISA OD [1]: 0.044 OD450 nm

B10: 6-MP01G05 VHH (periplasmic extract) (VHH)
VHH: QVQLQESGGGLVQAGGSLRLSCAASGRTFSSYAMGWFRQAPGKEREFVAVISWNVDNTEYTDSVKGRFTISRDNDKNMVYLQMNSLKPEDTAVYYCAADSIPLSSDMSPTATEYGYWGQGTQVTVSS
OD450 nm (mouse IL-2Rα (mouse)): 0.046 OD450 nm

B11: 27-MP04G01 VHH-hFc, monospecific monovalent (Fc fusion, part only; not given: Both Fc arms and linker, not shown: another chain or arm of the molecule; a dimerising Fc or GST; large carriers; small tags and cut ends)
VHH: QVQLVESGGGLVQAGGSLTLSCAAPGRTFGTDVVGWFRQAPGKEREFVASISRSGDGIYYDDSVKGRFTISRNNAWNTVNLQMNSLKVEDTAVYYCAAGDGWSTYDYWGQGTQVTVSS
EC50 [2]: 0.153 nM
EC50 [3]: 0.155 nM
Fold change [4]: 1 fold

B12: 28-MP04D02 VHH-hFc, monospecific monovalent (Fc fusion, part only; not given: Both Fc arms and linker, not shown: another chain or arm of the molecule; a dimerising Fc or GST; large carriers; small tags and cut ends)
VHH: QVQLVESGGGLVQAGGSLRLSCAASGRTLSRYAMGWFRQAPGKEREFVTANSWGGDTYYADSVQGRFTFSRDNAKNTVYLQMNSLQPEDTAVYYCAAAPTSFATTAYSGSNSYAYWGQGTQVTVSS
EC50 [2]: 0.723 nM
EC50 [3]: 0.62 nM
Fold change [4]: 1.2 fold

B13: 29-MP04H02 VHH-hFc, monospecific monovalent (Fc fusion, part only; not given: Both Fc arms and linker, not shown: another chain or arm of the molecule; a dimerising Fc or GST; large carriers; small tags and cut ends)
VHH: QVQLVESGGGLVQAGGSLRLACVASGLTFDNYYMGWFRQAPGKEREFVAGIIWNGDHTAYADSIKGRFTISRDNAKNTAYLRMNSLKPEDTAVYYCAATFWIERATTPDIGQYAYWGQGTQVTVSS
EC50 [2]: 0.534 nM
EC50 [3]: 0.683 nM
Fold change [4]: 0.8 fold

B14: 34-MP04A12 VHH-hFc, monospecific monovalent (Fc fusion, part only; not given: Both Fc arms and linker, not shown: another chain or arm of the molecule; a dimerising Fc or GST; large carriers; small tags and cut ends)
VHH: QVQLVESGGGLVQAGSSLRLSCAASGRTLSRLAMGWFRQAPGKEREFVAVNSWGGDTFYADSVEGRFTYSRDNAKSAVYLQMNSLQPEDTAVYYCAAAPTSFATTAYSSSNSYAYWGQGAQVTVSS
EC50 [2]: 0.158 nM
EC50 [3]: 0.132 nM
Fold change [4]: 1.2 fold

B15: 37-MP07F09 VHH-hFc, monospecific monovalent (Fc fusion, part only; not given: Both Fc arms and linker, not shown: another chain or arm of the molecule; a dimerising Fc or GST; small tags and cut ends)
VHH: QVQLVESGGGLVQAGGSLRLSCAASGRTLSRYAMGWFRQAPGKEREYVAIDSWGGDTFYADSVEGRFTFSRDNAKNEVYLQMNSLQPEDTAVYYCAGAPTSFATTAYSSSNSYRYWGQGTQVTVSS
EC50 [2]: 0.097 nM
EC50 [3]: 0.081 nM
Fold change [4]: 1.2 fold

B16: 3-MP01E03 VHH (periplasmic extract) (VHH)
VHH: QVQLVESGGGLVQAGGSLRLSCTASGRTLSSYSMAWFRQAADKGREFVTAISSSGVVTHVLDSVKGRFTISRDNAKNTVYLQMNSLQPEDTALYFCAGTASSYSTYEANYNYWGQGTLVTVSS
OD450 nm (mouse IL-2Rα (mouse)): 0.046 OD450 nm

B17: 38-MP07A11 VHH-hFc, monospecific monovalent (Fc fusion, part only; not given: Both Fc arms and linker, not shown: another chain or arm of the molecule; a dimerising Fc or GST; small tags and cut ends)
VHH: QVQLVESGGGLVQAGGSLRLSCAASGRSLSRDAMGWFRQAPGKEREFVAVMSWGGDTFYTDSVEGRFTFSRDNAKNAVYLEMNDLQPEDTAVYYCAAAPTSFATTAYSSSNSYSYWGRGTQVTVSS
EC50 [2]: 0.16 nM
EC50 [3]: 0.107 nM
Fold change [4]: 1.5 fold

B18: 5-MP01F05 VHH (periplasmic extract) (VHH)
VHH: EVQLVESGGGLVQAGGSLRLSCAASIRAFTTWSMAWFRQAPGKEREYVARINVSGSVTYYADFVKGRFTISRDNAKKTMYLEMNNLKPEDTALYYCAADRTGVGTNDYNYWGQGTQVTVSS
OD450 nm (mouse IL-2Rα (mouse)): 0.046 OD450 nm

B19: 2-MP01A02 VHH (periplasmic extract) (VHH)
VHH: QVQLVESGGGLVQPGGSLRLSCATSGFTFRNNFMSWVRQAPGKGLEWVSTISYGGESTTYAESVKGRFTISRDNAKNTLYLQMNNLKPEDTAVYYCAKATSYDSIRSGSRGQGTQVTVSS
OD450 nm (mouse IL-2Rα (mouse)): 0.046 OD450 nm

B20: 8-MP01C12 VHH (periplasmic extract) (VHH)
VHH: QVQLVESGGGLVQPGGSLRLSCATSGFTFSNNFMSWVRQAPGKGLEFVSTISYGGESTTYAEAVKGRFTISRDNAKNTLYLQMNNLKPEDTAIYYCAKATSYTSIRGAPRGQGTQVTVSS
OD450 nm (mouse IL-2Rα (mouse)): 0.045 OD450 nm
